These results are taken from the DeepSol protein solubility set.

The data set is described as follows: soluble on expression in E. coli; label from the status in PepcDB or PDB records.
Turning to “MSLNDLVMDVDLDFADGQSPMRTKKANEIIRDPISGSVVIPIDADKFPKESHNSPLVFKLGNGANENIMHVKSQKDVNLYPVPLSTSDFSENFINYICNLFDIYQDLGSHRIFSRPTIGVISSDYELEHTRVVNMALDSMIIELEILIASYDKLENANIARILELEQCLVILQCLRTFQFIDSINDRATFFDSLLKWTNRTDGEPKVEYIQSIFGQSDSSQVFFTEPFWKLVYQLLLRGLTEQAINTLEKSELAKYLKENCETTSTIFEDFIQLVKNYPLESEEHFREWKSFALELQQNFEDADTKIPVPLRKNLLDAISITAGNRDKILQHSSFWYESLTGFLLYYIPSEELIQEYVGLAVSKTPIDVTNPWETACLKILQNDIFPVLPILESLDNCTASFSAALCESKGLLIDRYTILEENSGSDDIEIDDIFSQRNGMASFLLNNFALELCSMKMKTLWPVAIGLISLSPYNTPSSKKSTIAELIPHYPFETNDDIEWALSVCAKWRLPDIAKEIYTTLGNQMLDNGNTVEAIANFSKAGQYELVKHYSWLLFENAAFQGKPMEDEVLSAIVDGDFNTSELIPDEVLNKVVTNAMRQSLSPYAVLSQFFSNVENERWSKALQQLMSLIEFEYLPKKYTVLLIVKYMYPLFLNDDQRMIDEETLVSLLAAIEKNWDCDDTDSVIAYEKLSEEIADLPKELKSMEKLIRKKLNGKLCLNLMIEGHHHHHH”, the “soluble on expression in E. coli” value is “soluble”. As to “MFLNSLDLPGQPENSRIVVAMSGGVDSSVVAGLLKKEGYDVIGITLQLYDHGAATHRVGACCAGQDIEDARCVAETLGIPHYVLDYEERFREAVIDPFAASYAHGETPVPCIACNQTVKFADLLATARELDADALATGHYIRSRSHGAHRALFRPLDSDRDQSYFLFATTQEQIDYLRFPLGDLPKARVREMATEMGFVVANKHDSQDICFVPQGKYSDIITKLRPEAVNPGVIVHVDGQVLGKHSGIVHYTVGQRRGIGVATGEALYVVYLDVENARVIVGPREMLETHKLFLRDVNWLGDERLDNFPPDGIEMAVKVRSTRPPHLARLHYQEGVFSVDFLECENSVAPGQACVFYDGNSDGARVLGGGFVTHSERAAETEMMLKRVLCNLETTSAVASEFKTKVSYT”, the “soluble on expression in E. coli” value was “not soluble”. The entry for “MGLKEKLIRKGKYIWELPKETIEGQRVPVILYLSDALFELLEEDALRQAANAATLPGVEKAIYVMPDVHVGYGFPVGGVMATNTETGIISPGSIGYDINCGVRLIATNLKAVDVAPRIKEIMNNMLKNVPAGVGSTSEIKLSKSQMKEVLVKGAGWAVEHGFGFPEDLQHIEGFGALPNADPEKASHEAYERGSDELGTVGSGNHFVEVQAVEQIYEPEIAEKLGIWEGQVMVMVHSGSRGFGHQVCTDYLRVALKVRDKYKIKLPDPQLACMPFNSPEGQAYFKAMNAAANYAFANRQILGFKAANTVRKTLGISWEEFGYRLIYDHAHNIGKVEKHEVDGKKVEVIVHRKGATRAFPPYNPEVPPAYREVGQPVIIPGDMGRASFLLVGQTNSMKMSFGTACHGAGRVMSRRQAKKYVKEVGLEKVIGNLVVVARGKGTIMEEIPQAYKDVTEVVRVIDELGIAKAVARLKPLGTLKG” is “soluble”; for “MANLTRRQWLKVGLAVGGMVTFGLSYRDVAKRAIDGLLNGTSGKVTRDRIFGNALIPEAQAQTHWQQNPQQTIAMTQCFGCWTQCGIRARVNADGKVIRIAGNPYHPLSQEHPIDSSVPFSEAMEQLAGESGLDARSTACARGATLLESLYSPLRLLEPMKRVGKRGEGKWQRISFEQLIEEVVEGGDLFGEGHVDGLRAIHAPDTPIDAKHPSFGPKTNQLLVTNTSDEGRDAFLRRFALNSFGSKNFGAHGAYCGLAYRAGSGALMGDLDKNPHVKPDWENVEFALFMGTSPAQSGNPFKRQARQLASARLRENFQYVVVAPALPLSTVLADPRGRWQPVMPGSDSALAMGMIRWIMDNQRYNADYLAIPGVQAMQQAGEQSWTNATHLVIADELPTLAGQHLTLRHLTPDGEETPVVLNTDGELVDASTCRQARLFVTQYVTLADGQRVTVKSGLQRLKEAAEKLSLAQYSEQCGVPEAQIIALAETFTSHGRKAAVISHGGMMAGNGFYNAWSVMMLNALIGNLSLSGGVFVGGGKFNGVSDGPRYNMNSFAGKVKPSGLSIARSKTAYEASEEYRDKIAGGQSPYPAKAPWYPFVAGQLTELLTSALEGYPYPLKAWISNMSNPFYGVPGLRAVAEEKLKDPRRLPLFIAIDAFMNETTALADYIVPDTHNFESWGFTAPWGGVASKATTARWPVVAPATHRTADGQPVSMEAFCIAVAKRLHLPGFGDRAITDPQGNTFPLNRAEDFYLRVAANIAFMGKTPVALANQEDISLTGVSRILPAIQHTLKADEVGRVAFIYSRGGRFAPEDSGYTEQRLGNAWKKPLQIWNADVAAHRHAITGERFSGCPVWYPARLSDGRAIDDQFPIGQWPLKLISFKSNTMSSSTAVIPRLHHVKPANLVALNPQDGERYGLQHGDRVRIITPGGQVVAQISLLNGVMPGVIAIEHGYGHREMGATQHSLDGVPMPYDPQIRAGINLNDLGFADPTRTITNTWLDWVSGAAVRQGLPAKIERI” it is “not soluble”. The same measure for “MQKVLAIVGPTAIGKTDLAISLAQKLNGEIISGDSMQVYQEVEVGTAKATKEEQAKVKHYLVDNRSVFDEYSVKDFVDEAKKAISEVAKKGKLPILVGGTGFYVNALLNEMQLGERNDEERGTSQKWEDYLKENGAEKLWQILNEKDPTAAAKIPVPNSRRTMRALTVIDRTGKKFSEQQKKIKPRYDYLIIGLNSDRQEIYRRINLRVDKMMGKGMLEEAKFIYDNRDKEHQILQAIAYKEFFPYFDGEKSLEDCVTQLKTASRRYAKRQLTYFRNQLPIQWFDPLNDLECEQKIINKVREWENGLEHHHHHH”: “soluble”; for “AVFNYALMPSLQQFNKILAHELNLVLDEDGPLKSDAPLRRQLLERLGVTVHSINSEKAVEFNHAMSIDLMSEEMTQELGSPTEVRLLLGSESYILWMHIEKLPNSIIRIPLSELQEEDFAPLFR”: “not soluble”. The same measure for “NDRFSWDTQFNISTIKNKLTSLIDEKPIPVGNHVLQVGQPIGSFYMYKMDGIYQDNQEVPEKLYAKGVRAGDIKYADKDNDGDLTPADKEIVGKPLPDFFGGLTNRFRYGNFDLTIFNTFSVGNDVYATGMGGIDAVGHNNYGMRKDIAANRWTGPGTNNSIPRAMISTHNTQASTYLLHDGSYFKFKDVTLGYTLPSNLTQKLNISNMRVYLSAQNLWTISSYPGYDPEVSYSVNNSKTMGEDAMTVPQLRTFVCGFNLTF”: “not soluble”. As to “MSKDEILKLGREEFFKSVKMEYRPYFEPYETPESVYPDGSINIDCTCLHSALAHRCGYLIRDALVCFNASKTTPRGLDCEKEFVAHAICTEEANNKS”, the “soluble on expression in E. coli” value was “not soluble”. The entry for “MSLNDLLVGLLLPEKENTRYEQFDYPFFKKKVGELTRDEGIVKYANAEASATKQADQMQQMIEDKVDVIVLDAVDAHAIADGVQKAKDAGIPVIAYDRLAEGPIDAYISFDNELVGEVQGRSLIEALGGDPESSAKIVMMNGSSTDPNAKQFKAGALSELNGKVTIAQSFDTKDWKPENAEANMTEAIEKIGKKKIAGVYSANDGMAGGVIKALEDAGVTDLPPITGQDAELAAVQRIVTGEQYMSVYKSYPQEAENAAEMAVARVQGRDIQFDALARDKVDSPTHKGIPAQLVPVVALTKANIEETVVAEGHHHHHH” is “soluble”; for “GMSAGQSSLSFAHGDETHPIEQKAFIGVDSAAGNVVKQFHAALQMGNEAIVRQSLAANVQIYEGGKVERSLTEYANHHMLADMAYLKGLTITPKEHQITITGDIAISTSISHAQGEYKGKSIDSMTMETLVLIKQADGRWKITHVHWS” it is “soluble”. As to “MSLKITRITVYQVDLPLEHPYWLSGGRLKFELLDATLVKLETDAGITGWGEGTPWGHTYVPAHGPGIRAGIETMAPFVLGLDPRRLLDVERAMDIALPGHLYAKSPIDMACWDIAGQAAGLPIADLMGGGSRTPRPIASSVGAKSVEETRAVIDRYRQRGYVAHSVKIGGDVERDIARIRDVEDIREPGEIVLYDVNRGWTRQQALRVMRATEDLHVMFEQPGETLDDIAAIRPLHSAPVSVDECLVTLQDAARVARDGLAEVFGIKLNRVGGLTRAARMRDIALTHGIDMFVMATGGSVLADAEALHLAATIPDHACHAVWACQDMLTVDIAGGRGPRNIDGHLHLPETPGLGVHPDEDALGDPVAVYSEGHHHHHH”, the “soluble on expression in E. coli” value was “soluble”.

With “MGSDKIHHHHHHQSMKKEEVPQNISAFPLGKENTGFKQYFTGESWLAPLTGNKDLNVPMSNVTFEPGCRNNWHSHTGGQILIAVGGVGYYQERGKAARRLLPGDVVEIAPDIEHWHGAAPDSWFSHLAIGCNPQTNKNIWLEQVDDQQYAEATKDNGGTGLSATDPELDAIFGNFTKEVQQYGNLDTKTRLMVTLASNIASQAQTEYRMMLESALNAGITPIEIKEILYQAVAYAGMAKVMDFVGITNEALLAHGVRLPLEGQAVVSAETRFDKGLALQKSIFGERIDQMHKNAPENQKHIQRYLSANCFGDYQTRGGLDVKTRELLTFSILVSLGGCESQVKGHIQGNVNVGNNKDTLLAVVTQLLPYIGYPRTLNAIACLNEVIPEK”, the “soluble on expression in E. coli” value is recorded as “not soluble”. As to “DVQLLESGPGLVAPSQSLSITCTVSGFSLTNYGVDWVRQPPGKGLEWVGVIWSGGSTNYNSALMSRLSISKDNSKSQVFLKMNSLQTDDTAVYYCAKHWGGYYIPYGMDHWGQGTTVTVSSASTKGPSVFPLAPSSKSTSGGTAALGCLVKDYFPEPVTVSWNSGALTSGVHTFPAVLQSSGLYSLSSVVTVPSSSLGTQTYICNVNHKPSNTKVDKKVEPKSCDKTHT”, the “soluble on expression in E. coli” value is given as “soluble”.

As to “MSLDSSKRQFLQQLGVLTAGASLVPLAEAKFPFSPERHEGSPRHRYAMLIDLRRCIGCQSCTVSCTIENQTPQGAFRTTVNQYQVQREGSQEVTNVLLPRLCNHCDNPPCVPVCPVQATFQREDGIVVVDNKRCVGCAYCVQACPYDARFINHETQTADKCTFCVHRLEAGLLPACVESCVGGARIIGDIKDPHSRIATMLHQHRDAIKVLKPENGTSPHVFYLGLDDAFVTPLMGRAQPALWQEGHHHHHH”, the “soluble on expression in E. coli” value is listed as “not soluble”.

For the sequence “MISLPAGSRIWLVAGITDMRNGFNGLASKVQNVLKDDPFSGHLFIFRGRRGDQIKVLWADSDGLCLFTKRLERGRFVWPVTRDGKVHLTPAQLSMLLEGINWKHPKRTERAGIRI”, the “soluble on expression in E. coli” value is recorded as “not soluble”. The entry for “MYKYFDAHCHYSYLKKKYEGYLIAAVSMDYQSAMDTFSLKSDNVLVGVGIHPWRVHEEDLTRILSLIIKADFVGEVGLDYRFAKAPKELQIKYFEEQIKAGEGKLINVHALDAWKDAFNILVKNDVKSAIFHWYTGPINLLKDIESAGYFISINPSVSFQKKHQEVLKNVDLKNVLTESDGGYEYRGKLLEPSDIPNAISFMSNFLGIEEYKLVRIISNNFFKAYGVNPVNN” is “not soluble”; for “SKLSPIIMIPGSSATENRFDGLVRKLNQDRRGTKHSLLKVKVWNNGRITFEGKIRKNDNEPIIVIGFENNKDGYSNIKKQAKMMNQAFEALQNKYNFNNFKGLAHSNGGLIYTAFIENDLSDYDVKINSLMTIGTPYNFTETNIKNKSVMLADFIAAKENIPSTLHVYSVAGTITYDSDELVPDASVSAGKYIYQNQAKSYTEITVTGEDAQHSDLPTNDEVVDLIKQHIEGQGLRKKQKTKLEPQ” it is “not soluble”. The same measure for “SLHEFGITQNIVAIVTEHAKGAKVQRVLLEIGKLSAIMPDAIRFCFDICTQGTVLEGATLEILEIPGLGRCRQCGGEIYLDKPFGICNCGSVQLDLITGEELKIKEIEIEELCV”: “soluble”; for “QQEKEFLESYPQNCPPDALPGTPGNLDSAQEKALAELRKLLEDAGFIERLDDSTLLRFLRARKFDVQLAKEMFENCEKWRKDYGTDTILQDFHYDEKPLIAKFYPQYYHKTDKDGRPVYFEELGAVNLHEMNKVTSEERMLKNLVWEYESVVQYRLPACSRAAGHLVETSCTIMDLKGISISSAYSVMSYVREASYISQNYYPERMGKFYIINAPFGFSTAFRLFKPFLDPVTVSKIFILGSSYQKELLKQIPAENLPVKFGGKSEVDESKGGLYLSDIGPWRDPKYIGPEGEAPE”: “soluble”.
